The text below walks through data of patent publication US20190030156A1 (TECHNOVAX, published 2019).

This test concerns the target RSV fusion glycoprotein (F) of RSV A2 strain virus (human respiratory syncytial virus A2 …, UniProt P03420 26-574). Nature of the test: cell-based or functional assay.

Sequence of RSV fusion glycoprotein (F) of RSV A2 strain virus (P03420 26-574): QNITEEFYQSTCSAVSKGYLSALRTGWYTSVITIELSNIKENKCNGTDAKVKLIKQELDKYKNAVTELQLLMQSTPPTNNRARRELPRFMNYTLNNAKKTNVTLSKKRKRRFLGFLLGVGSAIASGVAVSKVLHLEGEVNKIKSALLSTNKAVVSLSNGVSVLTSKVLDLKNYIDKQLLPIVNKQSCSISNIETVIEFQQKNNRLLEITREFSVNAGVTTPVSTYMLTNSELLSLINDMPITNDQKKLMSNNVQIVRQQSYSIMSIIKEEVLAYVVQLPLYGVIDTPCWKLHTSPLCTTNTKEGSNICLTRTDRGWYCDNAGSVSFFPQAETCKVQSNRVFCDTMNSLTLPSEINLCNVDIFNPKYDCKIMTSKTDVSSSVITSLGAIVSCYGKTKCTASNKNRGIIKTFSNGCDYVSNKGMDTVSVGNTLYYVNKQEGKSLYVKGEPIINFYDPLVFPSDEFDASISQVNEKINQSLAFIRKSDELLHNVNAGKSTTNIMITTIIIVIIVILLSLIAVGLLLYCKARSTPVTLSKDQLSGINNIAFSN

B1: Palivizumab (Synagis, MedImmune) (antibody, V domains shown)
VH: QVTLRESGPALVKPTQTLTLTCTFSGFSLSTSGMSVGWIRQPPGKALEWLADIWWDDKKDYNPSLKSRLTISKDTSKNQVVLKVTNMDPADTATYYCARSMITNWYFDVWGAGTTVTVSS
VL: DIQMTQSPSTLSASVGDRVTITCKCQLSVGYMHWYQQKPGKAPKLLIYDTSKLASGVPSRFSGSGSGTEFTLTISSLQPDDFATYYCFQGSGYPFTFGGGTKLEIK
Regarding B1, the “IC50 neutralizing activity (plaque reduction neutralization test, RSV A2 on HEp-2 cells)” value was 2 µg/mL.
